Data set [1] concerns the molecule itself. The data set can be described thus: FRET or BRET; Trp (Q427W, donor) to IAEDANS (Q502C, acceptor) between adjacent subunits; low salt buffer A (50 mM Tris pH 7.5, 5 mM MgCl2, 20 mM KCl, 2 mM DTT) without or with 2 mM ATP, 25°C, excitation 290 nm.
Data set [2] deals with the molecule itself. Description: cross-linking; disulfide cross-linking: 4 μM ClpB cysteine variant, 25 μM Cu-Phenanthroline, 1 min at room temperature; non-reducing SDS gradient gel (3-8%).
Data set [3] deals with the molecule itself. The data set can be described thus: negative-stain EM single-particle reconstruction; BAP(HAP)-ClpP complexes formed in 20 mM Tris-HCl pH 7.5, 20 mM KCl, 15 mM MgCl2, 1 mM DTT, 2 mM ATPγS; stained with 2% uranyl acetate; side views of 2:2 complexes cut into 1:1 halves; sixfold symmetry imposed or none.
Data set [4] concerns the molecule itself. Description: crystal structure; SeMet protein with ATP (ADP bound), space group P65, one molecule in the asymmetric unit, 3.50 Å.

B1: ClpB-Q427W-Q502C-IAEDANS in the tryptophan-free ClpB-W462Y/W543L variant (natural protein)
chain: not shown
modifications: IAEDANS on the cysteine at 502 (Q502C), labelled with efficiencies of 70-80%
notes: ClpB of E. coli; also called wild type ClpB (FRET pair); source: purified (Ni-IDA, size exclusion chromatography Superdex S200); labelled with 1,5-IAEDANS
With B1, the binding result in data set [1] is listed as “binds”.

B2: ClpB-K431C-S499C hyperactive (Y503D) variant (natural protein)
chain: not shown
notes: ClpB of E. coli; source: purified (Ni-IDA, size exclusion chromatography Superdex S200); dialyzed to remove DTT
Consider B2, for which the binding result in data set [2] is “binds”.

B3: ClpP protease (enzyme)
chain: not shown
notes: ClpP protease; source: purified as described previously (Oguchi et al., 2012); copies: 14
With B3, the “stoichiometry N” value in data set [3] was 14.

B4: ClpB-K431C-S499C repressed (E432A) variant (natural protein)
chain: not shown
notes: as for B2
With B4, the binding result in data set [2] is given as “binds”.

B5: ND truncation of E. coli ClpB (residues 159 to 858; E279A/E432A/E678A), SeMet (domain or fragment)
chain: not shown
modifications: selenomethionine (SeMet)
notes: ClpB of E. coli, residues 159 to 858, without the N-terminal domain; One molecule in the asymmetric unit (P65); monomers form a spiral assembly in the crystal; also called ClpB E279A/E432A/E678A (SeMet) + ATP; E. coli ClpB-E432A (crystal structure); source: purified (Ni-IDA, size exclusion chromatography Superdex S200)
With B5, in data set [4], the binding result is recorded as “binds”.

B6: ClpB-Q427W-Q502C-IAEDANS (W462Y/W543L) with E432A (natural protein)
chain: not shown
modifications: IAEDANS on the cysteine at 502 (Q502C), labelled with efficiencies of 70-80%
notes: ClpB of E. coli; also called E432A (FRET pair); source: purified (Ni-IDA, size exclusion chromatography Superdex S200); labelled with 1,5-IAEDANS
B6: the binding result in data set [1] is listed as “binds”.

As a reminder, the stoichiometry N is a count of units in the complex or per binding partner.

The record behind these values is publication PMC4023160, “Head-to-tail interactions of the coiled-coil domains regulate ClpB activity and cooperation with Hsp70 in protein disaggregation” (eLife, 2014).
